We go through four molecules from patent publication US20130121915A1.

Series [1] has as its system wild type OprD (FadL-OprD with C-terminal two glycines and 6 histidines).
The subject of series [2] is OprD mutant L8rek#1.
The test system of series [3] is OprD mutant L8fxa#1.
For series [4], the target named is FhuA7/10-1 with histidine tag. Description: cell-based or functional assay.
Series [5] addresses T1, FhuA7/10-1 with histidine tag.
T1 chain: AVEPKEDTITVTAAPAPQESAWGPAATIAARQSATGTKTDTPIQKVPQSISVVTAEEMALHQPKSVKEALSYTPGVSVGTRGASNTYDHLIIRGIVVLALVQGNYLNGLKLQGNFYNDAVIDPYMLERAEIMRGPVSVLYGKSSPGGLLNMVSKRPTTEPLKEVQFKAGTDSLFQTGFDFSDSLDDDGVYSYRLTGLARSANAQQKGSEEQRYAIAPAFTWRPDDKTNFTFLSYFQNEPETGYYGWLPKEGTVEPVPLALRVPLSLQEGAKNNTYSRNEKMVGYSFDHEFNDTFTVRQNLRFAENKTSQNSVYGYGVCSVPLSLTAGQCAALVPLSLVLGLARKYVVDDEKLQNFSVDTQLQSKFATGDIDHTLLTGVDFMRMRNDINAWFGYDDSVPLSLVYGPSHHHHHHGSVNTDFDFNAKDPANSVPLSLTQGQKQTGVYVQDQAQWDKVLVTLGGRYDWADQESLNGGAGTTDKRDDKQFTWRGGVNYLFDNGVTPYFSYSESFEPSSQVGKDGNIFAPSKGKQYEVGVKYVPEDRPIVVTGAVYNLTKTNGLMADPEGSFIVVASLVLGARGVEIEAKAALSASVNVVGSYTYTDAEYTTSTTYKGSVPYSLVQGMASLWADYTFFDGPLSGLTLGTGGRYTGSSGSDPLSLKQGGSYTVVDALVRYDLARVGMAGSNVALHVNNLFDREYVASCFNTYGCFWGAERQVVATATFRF

Series [6] deals with T2, native OPRD pseudomonas aeruginosa beta barrel channel polypeptide, expressed with surface antigen D15 signal peptide and a tag.
T2 chain: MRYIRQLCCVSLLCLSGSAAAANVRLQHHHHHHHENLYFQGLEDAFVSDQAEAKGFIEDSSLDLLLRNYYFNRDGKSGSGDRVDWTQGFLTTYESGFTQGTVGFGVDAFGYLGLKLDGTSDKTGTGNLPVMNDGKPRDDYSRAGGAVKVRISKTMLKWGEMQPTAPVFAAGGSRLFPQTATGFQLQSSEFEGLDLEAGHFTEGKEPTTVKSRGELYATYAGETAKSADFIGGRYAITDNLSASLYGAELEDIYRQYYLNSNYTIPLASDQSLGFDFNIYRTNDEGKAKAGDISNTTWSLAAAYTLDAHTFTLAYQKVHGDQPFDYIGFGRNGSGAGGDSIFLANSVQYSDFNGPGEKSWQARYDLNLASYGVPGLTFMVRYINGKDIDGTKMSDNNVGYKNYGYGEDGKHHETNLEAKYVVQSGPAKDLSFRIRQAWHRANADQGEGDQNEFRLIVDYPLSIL

Series [7] concerns the target T3, wild type OprD (FadL-OprD with C-terminal two glycines and 6 histidines).
T3 chain: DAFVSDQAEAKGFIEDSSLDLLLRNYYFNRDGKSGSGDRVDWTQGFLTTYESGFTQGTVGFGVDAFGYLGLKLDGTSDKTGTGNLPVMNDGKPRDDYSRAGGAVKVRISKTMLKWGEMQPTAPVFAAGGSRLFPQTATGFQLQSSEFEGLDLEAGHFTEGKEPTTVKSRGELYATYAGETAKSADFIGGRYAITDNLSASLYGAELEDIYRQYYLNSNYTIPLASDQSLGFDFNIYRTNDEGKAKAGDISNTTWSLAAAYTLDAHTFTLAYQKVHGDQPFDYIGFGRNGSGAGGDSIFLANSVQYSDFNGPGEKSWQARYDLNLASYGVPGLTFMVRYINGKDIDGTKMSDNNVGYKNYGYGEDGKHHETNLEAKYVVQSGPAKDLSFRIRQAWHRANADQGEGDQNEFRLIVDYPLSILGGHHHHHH

Series [8] has as its target T4, OprD mutant L8 mmp7turk#3.
T4 chain: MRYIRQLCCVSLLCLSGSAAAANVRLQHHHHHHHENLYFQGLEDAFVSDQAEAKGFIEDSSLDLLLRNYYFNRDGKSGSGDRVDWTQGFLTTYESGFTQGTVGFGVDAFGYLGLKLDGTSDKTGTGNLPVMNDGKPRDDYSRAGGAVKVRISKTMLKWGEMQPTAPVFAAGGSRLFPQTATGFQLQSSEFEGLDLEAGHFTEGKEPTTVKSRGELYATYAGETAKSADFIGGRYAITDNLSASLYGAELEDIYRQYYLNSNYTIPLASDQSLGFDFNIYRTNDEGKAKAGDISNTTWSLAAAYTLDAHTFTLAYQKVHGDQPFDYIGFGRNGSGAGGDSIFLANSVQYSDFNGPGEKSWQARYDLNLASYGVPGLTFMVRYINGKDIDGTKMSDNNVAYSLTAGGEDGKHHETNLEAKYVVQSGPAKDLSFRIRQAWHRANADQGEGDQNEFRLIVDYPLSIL

For enterokinase (Novagen, cat#69066-3), the “proteolysis over time, gel bands” value in series [1] is “Incubation of enterokinase with the wild type OprD yields a non specific band, that does not increase over time”; in series [2] it was “incubating enterokinase with the mutant L8rek#1 (SEQ ID NO: 22798) shows specific cleavage since band “a” disappears and band “b” becomes more apparent over time”.

In the case of factor Xa (Novagen, cat#69036-3), the “proteolysis over time, gel bands” value is “Incubation of Factor X enzyme with the wild type OPRD yields a few non specific bands” in series [1]; “incubation of factor X with mutant L8fxa#1 (SEQ ID NO: 22788) shows specific cleavage, since bands “a” and “b” become more apparent with time” in series [3].

Take “human matrix metalloproteases seven (MMP-7, Calbiochem, cat #444270) (from UniProt P09237 95-267) (enzyme)”: the inward ionic current, whole-cell patch clamp of HEK293T cells expressing FhuA7/10-1 after addition of MMP-7 in series [4] was 20000 >=.

B1: human matrix metalloproteases seven (MMP-7, Calbiochem, cat #444270) (protein)
chain: YSLFPNSPKWTSKVVTYRIVSYTRDLPHITVDRLVSKALNMWGKEIPLHFRKVVWGTADIMIGFARGAHGDSYPFDGPGNTLAHAFAPGTGLGGDAHFDEDERWTDGSSLGINFLYAATHELGHSLGMGHSSDPNAVMYPTYGNGDPQNFKLSQDDIKGIQKLYGKRSNSRKK
Consider B1, for which the “cleavage kinetics 0 to 720 min, Western blot and densitometry” value in series [5] is “the amount of uncleaved protein (˜81 kDa, indicated by ‘a’) decreases while the amount of the cleaved one increases (˜57 kDa, indicated by ‘b’); after 12 hours all His-tagged polypeptides (˜81 kDa) completely disappear along with the ˜57- and ˜37-kDa bands”. In addition, the “cleavage of membrane-integrated FhuA7/10-1, Western blot with anti-His5” value in series [5] was “Incubation of the membranes with human MMP-7 for 30 minutes at 37 °C resulted in the appearance of ˜57- and ˜37-kDa bands”. Besides, the “cleavage, Western blot” value in series [6] was “the native protein (solubilized in DDM) was not cleaved in the presence of MMP-7 (concentration 0.25 Units per 16 ug of total protein)”. The “proteolysis, gel bands” value was “Incubation of MMP7 with wild type OprD yields a few non specific bands, compared with the control sample held at the same temperature for 24 hours but with out the MMP7” in series [7] and “incubating mmp7 with the mutant L8 mmp7turk#3 (SEQ ID NO: 22836) shows cleavage as the main protein band disappears” in series [8].
